According to patent US20020019514A1 (Harvard, published 2002):

Molecular target: T1, CIITA (expressed from the CIITA expression vector pCMV.CIITA) (UniProt P33076 1-1130)
T1 sequence (looked up): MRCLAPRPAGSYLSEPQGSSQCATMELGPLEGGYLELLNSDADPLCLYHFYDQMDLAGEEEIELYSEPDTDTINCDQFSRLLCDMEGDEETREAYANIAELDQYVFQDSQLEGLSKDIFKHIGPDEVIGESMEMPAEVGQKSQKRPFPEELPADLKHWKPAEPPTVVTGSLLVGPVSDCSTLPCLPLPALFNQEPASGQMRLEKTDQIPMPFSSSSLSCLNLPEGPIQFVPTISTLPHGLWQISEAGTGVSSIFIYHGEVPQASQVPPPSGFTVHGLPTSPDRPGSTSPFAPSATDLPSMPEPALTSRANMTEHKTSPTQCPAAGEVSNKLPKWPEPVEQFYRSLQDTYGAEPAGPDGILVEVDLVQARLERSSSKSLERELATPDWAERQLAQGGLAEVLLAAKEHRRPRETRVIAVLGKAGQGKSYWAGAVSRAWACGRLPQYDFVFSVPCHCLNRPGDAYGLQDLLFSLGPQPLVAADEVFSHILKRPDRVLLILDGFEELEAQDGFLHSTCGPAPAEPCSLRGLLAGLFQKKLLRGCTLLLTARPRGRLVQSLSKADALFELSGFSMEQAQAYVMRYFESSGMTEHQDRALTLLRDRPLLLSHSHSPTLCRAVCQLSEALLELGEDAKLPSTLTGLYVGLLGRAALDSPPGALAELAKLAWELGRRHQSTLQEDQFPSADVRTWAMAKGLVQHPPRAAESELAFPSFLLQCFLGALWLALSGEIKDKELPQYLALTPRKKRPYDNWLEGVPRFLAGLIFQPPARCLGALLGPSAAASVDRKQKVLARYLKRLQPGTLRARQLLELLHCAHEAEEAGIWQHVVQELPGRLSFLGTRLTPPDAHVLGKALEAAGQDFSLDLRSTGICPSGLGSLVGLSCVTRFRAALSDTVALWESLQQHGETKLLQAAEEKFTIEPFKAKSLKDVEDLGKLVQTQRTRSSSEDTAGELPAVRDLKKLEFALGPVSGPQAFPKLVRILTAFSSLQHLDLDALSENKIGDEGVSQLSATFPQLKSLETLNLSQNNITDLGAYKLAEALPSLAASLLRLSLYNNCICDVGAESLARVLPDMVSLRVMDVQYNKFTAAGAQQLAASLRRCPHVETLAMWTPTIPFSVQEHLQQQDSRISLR
Test: cell-based or functional assay

CIITA-mediated DRα-CAT expression (DRα promoter CAT reporter in cotransfected cells): ~30 fold
B1: CIITA-Interacting Protein 104 (CIP104) (other)
chain: MKMLDESIRKEEEQQQHEAGVAPQPPLKEPFASLQSPFPTDTAPTTTAPAVAVTTTTTTTTTTTATQEEEKKPPPALPPPPPLAKFPPPSQPQPPPPPPPSPASLLKSLASVLEGQKYCYRGTGAAVSTRPGPLPTTQYSPGPPSGATALPPTSAAPSAQGSPQPSASSSSQFSTSGGPWARERRAGEEPVPGPMTPTQPPPPLSLPPARSESEVLEEISRACETLVERVGRSATDPADPVDTAEPADSGTERLLPPAQAKEEAGGVAAVSGSCKRRQKEHQKEHRRHRRACKDSVGRRPREGRAKAKAKVPKEKSRRVLGNLDLQSEEIQGREKSRPDLGGASKAKPPTAPAPPSAPAPSAQPTPPSASVPGKKAREEAPGPPGVSRADMLKLRSLSEGPPKELKIRLIKVESGDKETFIASEVEERRLRMADLTISHCAADVVRASRNAKVKGKFRESYLSPAQSVKPKINTEEKLPREKLNPPTPSIYLESKRDAFSPVLLQFCTDPRNPITVIRGLAGSLRLNLGLFSTKTLVEASGEHTVEVRTQVQQPSDENWDLTGTRQIWPCESSRSHTTIAKYAQYQASSFQESLQEEKESEDEESEEPDSTTGTPPSSAPDPKNHHIIKFGTNIDLSDAKRWKPQLQELLKLPAFMRVTSTGNMLSHVGHTILGMNTVQLYMKVPGSRTPGHQENNNFWSVNINIGPGDCEWFAVHEHYWETIRAFCDRHGVDYLTGSWWPILDDLYASNIPVYRFVQRPGDLVWINAGTVHWVQATGWCNNIAWNVGPLTAYQYQLALERYEWNEVKNVKSIVPMIHVSWNVARTVKISDPDLFKMIKFCLLQSMKHCQVQRESLVRAGKKIAYQGRVKDEPAYYCNDCDVEVFNILFVTSENGSRNTYLVHCEGCARRRSAGLQGVVVLEQYRTEELAQAYDAFTLAPASTSR
